# Data published in paper doi:10.1101/2021.02.07.430097, “Molecular and structural mechanisms of ZZ domain-mediated cargo recognition by autophagy receptor Nbr1” (bioRxiv, 2021).
# B1: Nbr1(53-180) of the Ams1-Nbr1 fusion protein (domain or fragment, S. pombe, UniProt Q9P792 53-180, looked up)
# chain: PTLRSSSVACNTCLKIIRNDSFHCTKCFDFDVCRDCYAKQAFLHPCPKPHFVLVRSSIPSVASLTCSVNSMSVSPQSNFMYAICDHCEQPIHNVRYKCSVCDDYDICESCLTDNSHSNTHAFVRITKA
# notes: S. pombe Nbr1 residues 53-180 (ZZ1 and ZZ2); residues 59-108 are in the model; written as a molecule of its own for the pair; also called Nbr1-ZZ1; ZZ1; source: S. pombe, Pnmt1 promoter, purified (GFP-Trap beads, released by 3C protease); not shown: MBP, C-terminal, kept; GFP, C-terminal, cleaved
# B2: Ams1 (full length) of the Ams1-Nbr1 fusion protein (enzyme, S. pombe, UniProt Q9UT61 2-1077, looked up)
# chain: TLFPVLNNTPVGKQVDSIYESRLDQFLSEGQYRDFNLPSVYDHARIDNPSGDVNNDLSKGFVDLKVYRVPDLSRPSFNEVVGHKKFDETASKGDTFGPSWATFWFEVHIRLPKSWAKYEQVIFQWNCDNEGLVYSQDGVPLQAFSGSERTDFILPDSWKTTEDTFYIEMACNGMFGTGAGSQIAPPDPNRYFTLTKADLVAPNLPAMALAYDFLLMQQCVKQLPSNCWQKYKARQICNDIMNTFHPNDLSTINECRNLAKAFLGNDIDSEAVFEKNNDKANVFAIGHCHIDTAWLWPFAETRRKIVRSWATQMNIMDRYPEYQFVCSQALQYLWLKEDHPDVFEKLKEYVNQNKFIPIGGSWVEHDTNIPNGESLIRQFLLGQHFFEKEFGVRCRTFWLPDTFGYSSQIPQICRLCGMDRFLTQKLSWNNINSFPTSTFNWVALDGSQVICHMPPANTYTADTNVNDVLHSIDQHKNLVNDQAGLLVFGIGDGGGGPTPEMLEKLRRCKGIANTVGYLPNVKLGNTVDEFFDGILKRTNAGQTLPSWNGELYFEFHRGTYTTQAELKKLMRKVEIALHDAEYVSTLASIFSKDYSYPKESLQDLWRDTLLCQFHDVLPGSCIEMVYKDAIPIMSKVLKNTEALLWQAIEQLGFKKASSSDNKEQLCLLNTLPWNVRGVITETEENKLVYFESCDGKGILTAAHTSLKHPAAAYQKDDNFILVNDHLRVTIAPNGLILSLFDLHKEREILDLKSGKNHAGANQYVLFEDTPLSWQAWDTEVFSLEKYEVLDKGKVSIKESGPLRASVVVDIPISELSHMKATISLEGYNDCSEFTGVNFTCEVDWHESCKFLKVEFPVDIHSEFASYETQFGITKRPTHYNTSWDVAKFEVCHQKFADYSDFTYGVSVLNDCKYGFSTHGNLMRLSLLRSPKQPDAHADMGKHTIRYAVYPHSKPLDSSTVRAAHKFNSNFRLLTRASDTANLDIFDAFQLVGEPNVILSHIKMAEKGKSIILRVYESLGGKSRARLVIKSLTVASVTKCNGLEEDLEELCTLKSNDYYEVPIELRAFEIATFKVNL
# notes: S. pombe alpha-mannosidase Ams1 (SPAC513.05), full length; the first methionine is removed in vivo, T2 is the most N-terminal residue in the density map; residues 2-1077 are in the model; written as a molecule of its own for the pair; also called Ams1_1; Ams1_3; source: S. pombe, Pnmt1 promoter, purified (GFP-Trap beads, released by 3C protease)
# Tests used:
# [1] = biological target: B2; test: cryo-EM structure; Ams1-linker-Nbr1(53-180)-MBP fusion protein purified from S. pombe; 2.4 Å, D2 symmetry; conditions: both partners purified
# [2] = biological target: the molecule itself; test: as above
stoichiometry N [1],Binder,stoichiometry N [2]
4 Nbr1-ZZ1 molecules per Ams1 tetramer,B1,–
–,B2,4
